Experiments:
[1] = biological target: human FcγRIIIa of allotype 158F, GPI-anchored (human) (UniProt P08637); experiment: flow cytometry on cells; IgG pre-complexed with equimolar goat F(ab')2 against its light chain (anti-κ for Fog-1, anti-λ for B2), on CHO cells expressing a single human FcγRII or FcγRIII; complexes detected with FITC anti-goat IgG; mean fluorescence of ≥12 000 cells
[2] = biological target: human FcγRIIIa of allotype 158V, GPI-anchored (human); experiment: as above

Sequence of UniProt P08637 (P08637 17-254): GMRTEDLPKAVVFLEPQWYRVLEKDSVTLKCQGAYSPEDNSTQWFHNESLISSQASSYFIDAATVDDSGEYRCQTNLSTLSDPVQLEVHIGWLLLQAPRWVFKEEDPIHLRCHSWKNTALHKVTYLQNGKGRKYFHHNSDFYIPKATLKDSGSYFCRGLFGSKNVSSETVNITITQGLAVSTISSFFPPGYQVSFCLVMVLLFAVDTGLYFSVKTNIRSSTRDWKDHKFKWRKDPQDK

## B2 G1Δnab (antibody)
[1]
  fold lower binding than G1: 100 fold
[2]
  fold lower binding than G1: 50 fold

— PMC4209800
